Results from the domain aggregation screens of Martell et al. (2025).

Test: soluble fraction after stress (log2 fold change); higher = more stays soluble; pooled small domains, quantitative proteomics
Conditions: stress: pH 4
Outline: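 How much of each domain stays soluble after acid stress, expressed as a fold change, is used to gauge aggregation propensity. Pooled custom libraries of small domains underwent pH 4 stress before high-throughput quantitative proteomics. A higher log2 value means more of the domain stayed soluble.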

Sequence | soluble fraction (log2)
HMEEQIEVPVQINGKVRSKLTVAPETDEKQIEALALADPKVQQQLEGKRVLKVIVAQKRLVNIVA | -0.035
HMEESTYQWNNFVRDFYASRVSAQYTNKLKVAAILWHHVKNTPQSKIYHDNLVSKYAEEINYFK | -0.387
HMEETEVPPVTGYEQSKASEVLTGKGLIPDIITVADEETAAGYVIRTDPASGEKVPSGTTVKVYVSSGP | -0.0585
HMEETGFYIKLQDQEVVIFHNDQVTPYEYTGIREEVLPESELEKLREGFFVEDEKELYSVLENLS | -0.412
HMEETLEELGKEYESAFTMYEKLWSYYKKQNYHQVNHKRSERYEILLGFVREYHPEKVEYYRELL | -0.482
HMEETLRALAKKISEKVLKSGRSTTLEPMNPYERRIIHSAVSEIEGVSSKSVGEEPYRKVVISSDNP | -0.0148
HMEETLRELAVKISKQVIKTGRNSVLEPMNPYERRIIHAVISEIEGVSSKSVGEDPNRKVVIMSTNP | -1.07
HMEEYTVEFVKHKVKRKQTLYTISKLYNVSIDDIIKYNSQIEGFNLSRRMELNIPVKKTLIVKNE | -0.823
HMEFDTEFVLRQAMHAFMQYGYAKTSMQKLKEATHLHPGSIYAAYGNKKGLFLAATEQYQKDR | -0.101
HMEFEYFQLRDHLYNLIMHPDKEKLKKDPDYLKLMSMAFSLLEDQNVGKDILEIAIKSIENFK | -0.674
HMEFLDLEIDVDATDGRLLAFLAAKGEVVSQTFNDTIITVRVRMPTGAMGQVHRSALAIRPA | -1.43
HMEFLDQAFLHETMRKVNQDATINLLKKVYEVPQKFIGRKVTVQYDPEDLSRVYVKDLSFPEPVTVYPV | 0.12
HMEFNDLNDDEKAILHIMYNTGEKMTTALAARITNRGRNFASKLLKSLVKKEILEWHGTSKQDRNQYYTLA | -0.337
HMEFQVKVIVSSLNIRSGPGTSYDTLGTVTKGDIFTIVETNSDSTWGKMQSGGWISIKDAYVKK | -0.216
HMEFTFTLPRGYIDDTGMIHREGTMRLANAADEILPLKDPRVQQNPGYLTIILLARVITKLGSL | -0.165
HMEFTKSPLDEIAGVGPARKRALLAAFGTAKAVSQAALADLEKTPGVNAATARLVYAHFHEK | 0.22
HMEFTVFMNSAGGSKLQVVKTVKELTGLGLKEAKAIVDGSPGPVKEGLSKADAEAMLAKLQEAGADVEL | -0.117
HMEFYYSDLVGMIVYDTGGNELGKVQAVLNHGAGDLLEIHGVNLKTSILIPFTKEAVPTVDIAARRIVTDP | 0.00543
HMEGAEDMNRALALAFLRDNSRSTVAQLAEHLGSSKRSAERLVAQLKDEGVLERQGSPRAGLWIVHI | 0.221
HMEGEVVESPLVGVAYLASGPDKPAFVQVGDSVSKGQTLLIIEAMKVMNEVPAPRDGIVTEILV | -0.279
HMEGFSAGQFVRASVDNTAFYLKRPKGDAVADKLLRRGASMKVISASGDYLKVELDSGEVGFVPPVMVE | 0.0892
HMEGIWAVFYDGKPINLKSSSLVANYPGPKYKKVSFSNPGHAENLAKKLNAQHNTDKFGVYLLKSGDKFS | 0.219
HMEGMSIYVTVNGDMVHLTGKMSYVFVDVFEHIDFDLSKPQGSGIVTKLNGRDAQYMEEIRSGDMIEIYWR | -0.669
HMEGNLVEIFEDAFGRTMSTMDIEYINQFKRTGYDDEMIVSALREAVKSNALSFRYIERVLENWAHS | -1.83
HMEGTEVTTEPPGAQIEFDGKQFGPTPTRVPGLAAGKQFRITLAGYQEAKPKLKNNPKEGEPLSFTLTAI | 0.264

Sequence | soluble fraction (log2)
HMEGTVQQDKFDAYKAKFEDAISNDLNTSMAITIIYDLLKDDMNDKTKLALINDFDKVLSLNLTTA | -1.17
HMEGVTVPDVTRISLDEAEELLTSYGLRFEVADRRANSAFPGNYVIDQAPSAEVIVKPNRKIYLTVNAA | -0.188
HMEHDTVLSKVFRRLREAHVPLSLDDIYQGLRKTVNNNSEIREKIVTLQERGLVAEILGPKGGKKYVAKPT | 0.199
HMEHIEVDTSHIAVGSKVKHKAFGLGEITDKGNTYVFVKFDGQAIPKKFQFPGAFTQGFLTK | 0.154
HMEHPNNTELTQKLELGTELMQYGDYNYALKVFNNVIDSDPEWSEAWNKRATVYFLMSQFTDSLSDIDRV | -0.17
HMEIDMQEGIKTIILMMKEHNITPSEAMKIYKSANGDIHYISKIYNHFKNKGADNFVALMIKMVKPGEFIE | -0.398
HMEIEETKKNSRTKIPENFDYKLINGLSNEIRAKLELIRPIDLLQASRIDGMTPAALTLVHLWIKKYSG | -0.419
HMEIEIPEELQNKFAEIPELKTAFESLTPGRQRAYVLYFSQPKQSKTREARIEKYIPHILDGKGMN | 0.0591
HMEIESAHAQVLGVREIAASGATQHWIAFRFSDGHQRELLATPSQADVIFRGQQGVVHFAGDRLTGWIPE | -0.198
HMEIEYFDDEELDAYKGRKSDSYTDEEAAQFAEVLYTMRPSEVKDWTASLTLRGISMPDQIKDEAIMLME | -0.984
HMEIGELITLYRKQAGLTIDELSEKANVPKGTLNKIIGGITKAPTLETMRSIAYALGKKLADFDN | 0.107
HMEIHQVEFGGKVISFVLERKPVKNVNLHIKPDMTVMVSANEKVPLDFILGFVKQKAAWILKNIQFFEDV | -1.08
HMEIKDQADAYGKMEPASAAAILSEMTNDLTLVAKILDSMQTSKSALILQNMKPTTAAQVTTKMTAMK | -0.11
HMEILTRQLTHYLHLLPPAQQEVVRGVYLQDQTLQEIADRVQIPLGTVKSRLRLGLSKLREQIEQEHE | 0.291
HMEIMELPEYVVRSGSGLDAFREKWDLWDQGLMYDLKDKRAVFPIFIDGVMIDAVGRALAGAEPKWLRYTG | -0.554
HMEINEDEIYEKIMIEIEQDNKVKSTWAKALSQSDGNKDKAESLYISMRFEELKYHQSYQKEELNLKDNQQ | -0.989
HMEIPRYRLIGADGGRMVDLGEGQGAIPPVDVKRGMIDMPGLGKGYYTADGKSAVITNADGSKTRVL | 0.304
HMEIRNLMPILSHFLNENDIKLSRESVNLVLDRASGNRENLNNELKKIHDYSFSNKIIDFETIKKLTNLG | -0.215
HMEISLAETLRSSLHMILGWYQNTGDKKLLELIRLHLQAYVNTGNSLNPEMEEIRAALETLGEGKEAFRP | -1.02
HMEISNWLEEIGLSRYTETLSEFPLEDLVEFTDDDFKELGVLTPHRKKLLAAIATLNNDASSN | -1.12
HMEISTEVPLRGGTISEEALEALNRLPGVTASNIDGKSISVDVADNAELRVSDINQVLAVHSPDTRV | -0.707
HMEITRDTVIQWLEAERRSQTWLSKQLGVSVQAVSNWLREKNPQTISASAQITIRALMEEDAAK | 0.00665
HMEIVQVIAQNIQDLLDKHKISVSELSGYLGISRQTLTNYLKTTSTIDSVQLVKIADFFNIPAEYLLKDH | -0.659
HMEIVSTEEKIKRAAEQVFLLRGLEGARMQEIADVAGINKAMLHYYFRNKETLFDVILSEKL | -1.14
HMEIYEEDRTKVVNDLMDQILNRQITMDAAATKFINIRNSLGTTITKEDEQNLEMLRGLIFDKT | -1.17

Sequence | soluble fraction (log2)
HMEIYIDGNKYVGELRNGKPNGRGTITYTGDGSKYVGEWKNGKRYGRGKMAYTNGTTKEGVWKDDEFLYAT | 0.377
HMEKAKVPSVIGMTEANAKRTIRDAGFKVGRVTRVESEAYDKGKVIEQQYEAGSELEKKKPISIVVSKGKK | 0.152
HMEKALEVKYQKMVELLGDQSTFYVDEVKKIFPEMKKSSLYWNMSKLVEGGYLRRIRNGVYAFNE | -0.124
HMEKEKIKEALIGYFEAEPEEKFTVQELADKLKMNKAGQFNFVVQAVAQLEHDKVITLDDEGNFSLVRHE | -0.967
HMEKERYDTGIGELNRVLGGGLVKGSLILISGDPGIGKSTLLLQTANNISKKYGKVLYVSGEESEEQIKIR | -0.722
HMEKGWYKLGQDSYYVDDDGKIHKGWLELDGKKYYFDQEGKMVTGTVNIDGKDYTFNEKGELYVS | -0.029
HMEKIELKTVIPENLKKKRLDFALSELFPEHSRSRIQSWIKEGSVMVNSKNYRQRDLVDAGDVVEINTEQK | 0.321
HMEKIIGQIQINQRGNGYVIVPNVKDDIFVKRENLNSARQGDRVAVQLLSRPNQKPEGLVQEVLERGQ | 0.071
HMEKILSYKALMNDAGKRIDQFLANNEKDISRTRIKSLILEGSLKLDNNIINDPSYKIKENDVFTLFIPEA | 0.0775
HMEKIRIQKYLSERGVMSRRAADSALAEGRIAVNGVTARPGDKIDPSSDTLTIDGRIVTTGTAP | ≥ 0.43
HMEKKEWVIYITGAVKKPGVYRIPEGARVYQALEAAGGFTPEADRDAVNLAAMLQDGAHIKFPAVGEEV | 0.0865
HMEKLNYSISNEEQGQRIDKYLSLMIEGKSRSFIQGLIDDKKVMANGKVIKSNYKLKNNDEITVEMPDPI | 0.0918
HMEKNILPDTSPEKQYEFATSFLKVGDYSTAERAFREFVINNSEHKLAGNAQYWYAETFRIRQ | 0.148
HMEKSQIHLIHTRYVNPEQLVPILSMVIPAENIYVKSDSNLIIINGSSEMLREVESIVSKLDVPS | -0.687
HMEKSSALRAKEAFMALYHDGKFKPGTKIPSESNMAELLGVSRETWRKALALLRGDGVLYSKHGSGTYLLE | -0.0262
HMEKTKLPNLVDFTYRQAEALLQTHGLKVGKVERVPDVGQTVIKAKYKGKVISWGTELNKGEKIDLVIGKG | 0.13
HMELADLPSAQIREILAYVYRAPLEKRRDPSIHWLLIAAHKLTLPLLDRLDPADARALGERYGADYP | -0.644
HMELARLRPELDGNDIMRILGVPPGPVVGRAYTYLLELRINQGELGRERVTQLLLDWAAAEGISA | -1.8
HMELDMTFGEKIQKLRKESGLSQEELSYQLGVSRQAISKWERDSGYPETEKIVRMSKIFDVTLDYLLNE | -1.06
HMELEDTYTKNLDASLARLDEYQASKGLTDEQVDEVINSLIADAENIIMGVFTPELIDSKLKAMNYDQDV | -0.17
HMELEFLTEKQKEALILAVNRGYYDVDSEVTLKRLADELGIARSTYGEHLKRAESEALKMVVSDLLRD | -1.03
HMELEIPGELIEAVRRLRDERQRMRLAGELAARQIQMHPERYTEASIDPVQTWDELRARILALA | -0.582
HMELLSGTVEKVLTSGVLVKLPGGAIGFIPNSEMGTPRGTNHGKMFPAGTPLQVMVVEVNQDRGRITLSR | -0.389
HMELLTNPLTGREVEVLTLMALGQTNHEIARQLYLATGTVKAHTSSIYRKLDVANRTEAVARARQLGIL | -0.448
HMELLTYREMDVLNLLDQRLTNKEIAHALGISTETVRQHTVNLFRKLNVDNRRQAIVVARSLGYIGTPT | -0.894
